Results published in the supplement of paper PMC7877785.
± gives the uncertainty stated by the source.

Experiment: self-splicing fitness, log relative to wild type (ln ratio); higher = more splicing; Tetrahymena group I intron in knt gene, E. coli kanamycin selection, DiMSum; sequences stand for … in CUCUCU…GGAGGGAAAAGUUAUCAGGCAUGCACCUGGUAGCUAGUCUUUAAACCAAUAGAUUGCAUCGGUUUAAAAGGCAAGACCGUCAAAUUGCGGGAAAGGGGUCAACAGCCGUUCAGUACCAAGUCUCAGGGGAAACUUUGAGAUGGCCUUGCAAAGGGUAUGGUAAUAAGCUGACGGACAUGGUCCUAACCACGCAGCCAAGUCCUAAGUCAACAGAUCUUCUGUUGAUAUGGAUGCAGUUCACAGACUAAAUGUCGGUCGGGGAAGAUGUAUUCUUCUCAUAAGAUAUAGUCGGACCUCUCCUUAAUGGGAGCUAGCGGAUGAAGUGAUGCAACACUGGAGCCGCUGGGAACUAAUUUGUAUGCGAAAGUAUAUUGAUUAGUUUUGGAGUACUCGUGGUCG
In short: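 Six replicate transformations of E. coli BL21(DE3) with a pET-22b(+) library were grown overnight at 37°C or 30°C. The library randomised all eight P1ex-region intron nucleotides, the intron lying in the knt kanamycin-resistance gene, and plates were LB agar with or without 25 μg/mL kanamycin plus 100 μg/mL carbenicillin, 50 μM IPTG and 0.2% rhamnose. Pooled colonies were amplicon-sequenced on an Illumina HiSeq 2500, and fitness is the DiMSum error-weighted combination of wild-type-normalised replicate fold changes, kanamycin versus none.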

For CCUGAGCAAUAUUACGACUA, which “self-splicing fitness (ln)” value (30 °C) is on record?
Its value is -2.81 ± 0.25.

What about the “self-splicing fitness (ln)” value (37 °C) of the same sequence?
The value was -1.79 ± 0.24.

For CCUGAGCAAUAUUACGCAGC, which “self-splicing fitness (ln)” value (37 °C) is on record?
Its value is -1.38 ± 0.3.

What does the source list for CCUGAGCAAUAUUACGCGGU?
self-splicing fitness (ln) (30 °C): -3.87 ± 0.21; self-splicing fitness (ln) (37 °C): -1.54 ± 0.16

For CCUGAGCAAUAUUACGCUAG, which “self-splicing fitness (ln)” value (30 °C) is on record?
Its value is -3.02 ± 0.19.

And the “self-splicing fitness (ln)” value (37 °C)?
The value was -1.27 ± 0.17.

With CCUGAGCAAUAUUACGCUCU as the sequence, how does the “self-splicing fitness (ln)” value (30 °C) read?
The value was -3.59 ± 0.43.

And the “self-splicing fitness (ln)” value (37 °C)?
The value was -2.26 ± 0.25.

For CCUGAGCAAUAUUACGCUGU, which “self-splicing fitness (ln)” value (30 °C) is on record?
Its value is -4.99 ± 0.46.

What about the “self-splicing fitness (ln)” value (37 °C) of the same sequence?
Its value is -2.85 ± 0.23.

Which results are given for CCUGAGCAAUAUUACGGACG?
self-splicing fitness (ln) (30 °C): -2.49 ± 0.16; self-splicing fitness (ln) (37 °C): -0.682 ± 0.12

Which “self-splicing fitness (ln)” value (30 °C) does the source give for CCUGAGCAAUAUUACGGAUU here?
Its value is -2.74 ± 0.18.

And the “self-splicing fitness (ln)” value (37 °C)?
The value was -2.34 ± 0.16.

Which “self-splicing fitness (ln)” value (30 °C) does the source give for CCUGAGCAAUAUUACGGCCU here?
Its value is -2.68 ± 0.17.

And the “self-splicing fitness (ln)” value (37 °C)?
The value was -2.96 ± 0.3.

Which “self-splicing fitness (ln)” value (30 °C) does the source give for CCUGAGCAAUAUUACGGGGG here?
The value was -3.15 ± 0.16.

And the “self-splicing fitness (ln)” value (37 °C)?
The value was -1.55 ± 0.22.

Which “self-splicing fitness (ln)” value (30 °C) does the source give for CCUGAGCAAUAUUACGUAGA here?
The value was -3.23 ± 0.13.

What about the “self-splicing fitness (ln)” value (37 °C) of the same sequence?
Its value is -2.26 ± 0.14.

For CCUGAGCAAUAUUACGUAUC, which “self-splicing fitness (ln)” value (37 °C) is on record?
The value was -2.46 ± 0.23.

For CCUGAGCAAUAUUACGUGCA, which “self-splicing fitness (ln)” value (30 °C) is on record?
Its value is -3.09 ± 0.21.

What about the “self-splicing fitness (ln)” value (37 °C) of the same sequence?
The value was -1.53 ± 0.26.

For CCUGAGCAAUAUUACGUGCG, which “self-splicing fitness (ln)” value (30 °C) is on record?
The value was -3.69 ± 0.22.

What about the “self-splicing fitness (ln)” value (37 °C) of the same sequence?
The value was -1.04 ± 0.16.

Which results are given for CCUGAGCAAUAUUACGUUAG?
self-splicing fitness (ln) (30 °C): -3.86 ± 0.17; self-splicing fitness (ln) (37 °C): -2.29 ± 0.12

With CCUUAGCAAUAUUACGAAAG as the sequence, how does the “self-splicing fitness (ln)” value (30 °C) read?
The value was -1.96 ± 0.11.

And the “self-splicing fitness (ln)” value (37 °C)?
Its value is -1.45 ± 0.089.

With CCUUAGCAAUAUUACGAGAG as the sequence, how does the “self-splicing fitness (ln)” value (30 °C) read?
Its value is -2.05 ± 0.11.

And the “self-splicing fitness (ln)” value (37 °C)?
The value was -1.42 ± 0.1.

Which “self-splicing fitness (ln)” value (30 °C) does the source give for CCUUAGCAAUAUUACGAGGG here?
The value was -3.54 ± 0.24.

And the “self-splicing fitness (ln)” value (37 °C)?
Its value is -1.39 ± 0.21.

Which results are given for CCUUAGCAAUAUUACGAGUA?
self-splicing fitness (ln) (30 °C): -2.81 ± 0.29; self-splicing fitness (ln) (37 °C): -2.42 ± 0.26

Which results are given for CCUUAGCAAUAUUACGAUGG?
self-splicing fitness (ln) (30 °C): -2.24 ± 0.13; self-splicing fitness (ln) (37 °C): -2.26 ± 0.16

With CCUUAGCAAUAUUACGCACG as the sequence, how does the “self-splicing fitness (ln)” value (30 °C) read?
The value was -2.02 ± 0.35.

With CCUUAGCAAUAUUACGCAGA as the sequence, how does the “self-splicing fitness (ln)” value (30 °C) read?
Its value is -3.11 ± 0.36.

What about the “self-splicing fitness (ln)” value (37 °C) of the same sequence?
Its value is -2.72 ± 0.3.

With CCUUAGCAAUAUUACGCGCC as the sequence, how does the “self-splicing fitness (ln)” value (30 °C) read?
Its value is -2.8 ± 0.4.

For CCUUAGCAAUAUUACGGCAU, which “self-splicing fitness (ln)” value (30 °C) is on record?
The value was -3.41 ± 0.19.

And the “self-splicing fitness (ln)” value (37 °C)?
Its value is -2.88 ± 0.32.

Which results are given for CCUUAGCAAUAUUACGUAAU?
self-splicing fitness (ln) (30 °C): -3.24 ± 0.29; self-splicing fitness (ln) (37 °C): -1.81 ± 0.16

For CCUUAGCAAUAUUACGUCAG, which “self-splicing fitness (ln)” value (30 °C) is on record?
Its value is -3.79 ± 0.35.

And the “self-splicing fitness (ln)” value (37 °C)?
Its value is -2.74 ± 0.31.

What does the source list for CCUUAGCAAUAUUACGUCUG?
self-splicing fitness (ln) (30 °C): -2.99 ± 0.1; self-splicing fitness (ln) (37 °C): -1.48 ± 0.096

For CCUUAGCAAUAUUACGUGAG, which “self-splicing fitness (ln)” value (30 °C) is on record?
The value was -1.35 ± 0.068.

What about the “self-splicing fitness (ln)” value (37 °C) of the same sequence?
Its value is 0.0439 ± 0.088.

Which “self-splicing fitness (ln)” value (30 °C) does the source give for CCUUAGCAAUAUUACGUGAU here?
The value was -3.66 ± 0.2.

And the “self-splicing fitness (ln)” value (37 °C)?
Its value is -2 ± 0.24.

For CCUUAGCAAUAUUACGUUAC, which “self-splicing fitness (ln)” value (30 °C) is on record?
The value was -3.65 ± 0.35.

And the “self-splicing fitness (ln)” value (37 °C)?
The value was -2.91 ± 0.29.

Which results are given for CGAAAGCAAUAUUACGAUAA?
self-splicing fitness (ln) (30 °C): -2.44 ± 0.17; self-splicing fitness (ln) (37 °C): -0.695 ± 0.12

For CGAAAGCAAUAUUACGAUGC, which “self-splicing fitness (ln)” value (30 °C) is on record?
Its value is -2.67 ± 0.39.

What about the “self-splicing fitness (ln)” value (37 °C) of the same sequence?
Its value is -1.35 ± 0.27.

For CGAAAGCAAUAUUACGAUUU, which “self-splicing fitness (ln)” value (30 °C) is on record?
The value was -2.12 ± 0.09.

And the “self-splicing fitness (ln)” value (37 °C)?
The value was -0.815 ± 0.099.

What does the source list for CGAAAGCAAUAUUACGCCCG?
self-splicing fitness (ln) (30 °C): -1.9 ± 0.18; self-splicing fitness (ln) (37 °C): -0.623 ± 0.21

What does the source list for CGAAAGCAAUAUUACGCCGA?
self-splicing fitness (ln) (30 °C): -1.99 ± 0.24; self-splicing fitness (ln) (37 °C): -0.323 ± 0.15

Which “self-splicing fitness (ln)” value (30 °C) does the source give for CGAAAGCAAUAUUACGCUAG here?
Its value is -2.3 ± 0.12.

And the “self-splicing fitness (ln)” value (37 °C)?
Its value is -1.57 ± 0.12.

Which results are given for CGAAAGCAAUAUUACGCUUG?
self-splicing fitness (ln) (30 °C): -2.51 ± 0.087; self-splicing fitness (ln) (37 °C): -2.15 ± 0.091

What does the source list for CGAAAGCAAUAUUACGGAAG?
self-splicing fitness (ln) (30 °C): -0.208 ± 0.097; self-splicing fitness (ln) (37 °C): -0.546 ± 0.11

Which “self-splicing fitness (ln)” value (30 °C) does the source give for CGAAAGCAAUAUUACGGACC here?
The value was -0.938 ± 0.11.

And the “self-splicing fitness (ln)” value (37 °C)?
The value was 0.398 ± 0.13.

With CGAAAGCAAUAUUACGGAGU as the sequence, how does the “self-splicing fitness (ln)” value (30 °C) read?
The value was -3.55 ± 0.19.

And the “self-splicing fitness (ln)” value (37 °C)?
Its value is -2.42 ± 0.17.

Which results are given for CGAAAGCAAUAUUACGGCAC?
self-splicing fitness (ln) (30 °C): -2.6 ± 0.15; self-splicing fitness (ln) (37 °C): 0.387 ± 0.21

Which results are given for CGAAAGCAAUAUUACGGCGA?
self-splicing fitness (ln) (30 °C): -0.763 ± 0.11; self-splicing fitness (ln) (37 °C): -0.486 ± 0.11

What does the source list for CGAAAGCAAUAUUACGGCUU?
self-splicing fitness (ln) (30 °C): -4.2 ± 0.22; self-splicing fitness (ln) (37 °C): -2.79 ± 0.3

What does the source list for CGAAAGCAAUAUUACGGGGG?
self-splicing fitness (ln) (30 °C): -2.85 ± 0.14; self-splicing fitness (ln) (37 °C): -1.96 ± 0.13

Which results are given for CGAAAGCAAUAUUACGGGUU?
self-splicing fitness (ln) (30 °C): -3.58 ± 0.21; self-splicing fitness (ln) (37 °C): -2.74 ± 0.19

For CGAAAGCAAUAUUACGGUAC, which “self-splicing fitness (ln)” value (30 °C) is on record?
The value was -2.51 ± 0.29.

What does the source list for CGAAAGCAAUAUUACGUACU?
self-splicing fitness (ln) (30 °C): -0.756 ± 0.078; self-splicing fitness (ln) (37 °C): 0.23 ± 0.098

What does the source list for CGAAAGCAAUAUUACGUCCG?
self-splicing fitness (ln) (30 °C): -1.22 ± 0.088; self-splicing fitness (ln) (37 °C): -0.637 ± 0.12

For CGAAAGCAAUAUUACGUCUU, which “self-splicing fitness (ln)” value (30 °C) is on record?
Its value is -2.8 ± 0.13.

What about the “self-splicing fitness (ln)” value (37 °C) of the same sequence?
Its value is -1.87 ± 0.16.

What does the source list for CGAAAGCAAUAUUACGUGAU?
self-splicing fitness (ln) (30 °C): -2.36 ± 0.11; self-splicing fitness (ln) (37 °C): -1.95 ± 0.14
